Data: the supplement of paper PMC7877785
± gives the uncertainty stated by the source.

Assay: self-splicing fitness, log relative to wild type (ln ratio); higher = more splicing; Tetrahymena group I intron in knt gene, E. coli kanamycin selection, DiMSum; sequences stand for … in CUCUCU…GGAGGGAAAAGUUAUCAGGCAUGCACCUGGUAGCUAGUCUUUAAACCAAUAGAUUGCAUCGGUUUAAAAGGCAAGACCGUCAAAUUGCGGGAAAGGGGUCAACAGCCGUUCAGUACCAAGUCUCAGGGGAAACUUUGAGAUGGCCUUGCAAAGGGUAUGGUAAUAAGCUGACGGACAUGGUCCUAACCACGCAGCCAAGUCCUAAGUCAACAGAUCUUCUGUUGAUAUGGAUGCAGUUCACAGACUAAAUGUCGGUCGGGGAAGAUGUAUUCUUCUCAUAAGAUAUAGUCGGACCUCUCCUUAAUGGGAGCUAGCGGAUGAAGUGAUGCAACACUGGAGCCGCUGGGAACUAAUUUGUAUGCGAAAGUAUAUUGAUUAGUUUUGGAGUACUCGUGGUCG
In short: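 Six replicate transformations of E. coli BL21(DE3) with a pET-22b(+) library were grown overnight at 37°C or 30°C. The library randomised all eight P1ex-region intron nucleotides, the intron lying in the knt kanamycin-resistance gene, and plates were LB agar with or without 25 μg/mL kanamycin plus 100 μg/mL carbenicillin, 50 μM IPTG and 0.2% rhamnose. Pooled colonies were amplicon-sequenced on an Illumina HiSeq 2500, and fitness is the DiMSum error-weighted combination of wild-type-normalised replicate fold changes, kanamycin versus none.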

Sequence	self-splicing fitness (ln) (30 °C)	self-splicing fitness (ln) (37 °C)
GCUAAGCAAUAUUACGGGAG	-3.12 ± 0.34	-1.28 ± 0.17
GCUAAGCAAUAUUACGGGCC		-2.28 ± 0.39
GCUAAGCAAUAUUACGGGGC	-4.76 ± 0.38	-2.87 ± 0.28
GCUAAGCAAUAUUACGGGGG	-3.45 ± 0.28	-1.89 ± 0.22
GCUAAGCAAUAUUACGGGUG	-1.24 ± 0.069	0.116 ± 0.079
GCUAAGCAAUAUUACGGUCC	-1.4 ± 0.22	-0.541 ± 0.3
GCUAAGCAAUAUUACGGUUA	-1.33 ± 0.1	-1.49 ± 0.094
GCUAAGCAAUAUUACGGUUU	-0.872 ± 0.069	-0.522 ± 0.095
GCUAAGCAAUAUUACGUCAG	-3.84 ± 0.28	-2.21 ± 0.22
GCUAAGCAAUAUUACGUCGU	-1.39 ± 0.072	-1.3 ± 0.095
GCUAAGCAAUAUUACGUCUC	-0.757 ± 0.066	-0.164 ± 0.072
GCUAAGCAAUAUUACGUCUU	-1.18 ± 0.13	0.136 ± 0.13
GCUAAGCAAUAUUACGUGCA	-0.433 ± 0.094	-0.212 ± 0.1
GCUAAGCAAUAUUACGUGUA	-1.29 ± 0.087	-0.0918 ± 0.088
GCUAAGCAAUAUUACGUUGG	-3.67 ± 0.15	-1.79 ± 0.12
GCUCAGCAAUAUUACGAAAA	-0.758 ± 0.13	-1.02 ± 0.18
GCUCAGCAAUAUUACGAAAC	-0.549 ± 0.14	-0.851 ± 0.17
GCUCAGCAAUAUUACGAAGC	-2.75 ± 0.12	-2.33 ± 0.15
GCUCAGCAAUAUUACGAAUU	-1.04 ± 0.064	0.155 ± 0.087
GCUCAGCAAUAUUACGACGC	-0.319 ± 0.12	-0.102 ± 0.19
GCUCAGCAAUAUUACGAGCG	-2.81 ± 0.16	-0.923 ± 0.11
GCUCAGCAAUAUUACGCAGC	-2.98 ± 0.35	-2.67 ± 0.44
GCUCAGCAAUAUUACGCAGG	-1.52 ± 0.084	-1.29 ± 0.098
GCUCAGCAAUAUUACGCAGU	-2.41 ± 0.15	-1.13 ± 0.14
GCUCAGCAAUAUUACGCCGA	-2.43 ± 0.26	-1.39 ± 0.34
GCUCAGCAAUAUUACGCUGG	-2.98 ± 0.16	-2.27 ± 0.22

Sequence	self-splicing fitness (ln) (30 °C)	self-splicing fitness (ln) (37 °C)
GCUCAGCAAUAUUACGCUUG	-2.04 ± 0.11	0.227 ± 0.1
GCUCAGCAAUAUUACGCUUU	-0.857 ± 0.077	-0.887 ± 0.083
GCUCAGCAAUAUUACGGAAA	-1.62 ± 0.15	-0.337 ± 0.12
GCUCAGCAAUAUUACGGACA	-1.25 ± 0.14	-0.983 ± 0.13
GCUCAGCAAUAUUACGGAGA	-0.638 ± 0.095	0.284 ± 0.14
GCUCAGCAAUAUUACGGUCU	-0.866 ± 0.087	-0.0674 ± 0.12
GCUCAGCAAUAUUACGGUGG	-2.89 ± 0.17	-1.41 ± 0.11
GCUCAGCAAUAUUACGGUUA	-0.772 ± 0.12	-0.237 ± 0.11
GCUCAGCAAUAUUACGGUUG	-4.11 ± 0.27	-2.28 ± 0.24
GCUCAGCAAUAUUACGUCAC	-3.37 ± 0.22	-2.06 ± 0.22
GCUCAGCAAUAUUACGUGAG	-4.29 ± 0.25	-3.23 ± 0.2
GCUCAGCAAUAUUACGUGUA	-0.241 ± 0.058	-0.00875 ± 0.067
GCUCAGCAAUAUUACGUGUC	-1.55 ± 0.078	-0.662 ± 0.081
GCUCAGCAAUAUUACGUUUU	-1.13 ± 0.056	0.00509 ± 0.068
GCUGAGCAAUAUUACGAAGU		-1.72 ± 0.41
GCUGAGCAAUAUUACGAUUC	-0.602 ± 0.1	-0.665 ± 0.11
GCUGAGCAAUAUUACGCGAG	-2.52 ± 0.16	-1.83 ± 0.23
GCUGAGCAAUAUUACGCUAU	-3.25 ± 0.19	-3.59 ± 0.28
GCUGAGCAAUAUUACGCUGG	-3.26 ± 0.31	-2.22 ± 0.42
GCUGAGCAAUAUUACGGAAU	-3.57 ± 0.25	-1.3 ± 0.17
GCUGAGCAAUAUUACGGAUG	-3.53 ± 0.18	-1.22 ± 0.12
GCUGAGCAAUAUUACGGCGC	-0.35 ± 0.13	-0.0749 ± 0.15
GCUGAGCAAUAUUACGGCUG	-1.57 ± 0.26	-1.96 ± 0.44
GCUGAGCAAUAUUACGUACA	-2.45 ± 0.24	-2.88 ± 0.28
GCUGAGCAAUAUUACGUACU	-1.76 ± 0.23	-1.07 ± 0.27
GCUGAGCAAUAUUACGUCAG	-3.35 ± 0.24	-2.15 ± 0.26

Sequence	self-splicing fitness (ln) (30 °C)	self-splicing fitness (ln) (37 °C)
GCUGAGCAAUAUUACGUGCG	-1.62 ± 0.099	-1.01 ± 0.14
GCUGAGCAAUAUUACGUGCU	-3.42 ± 0.12	-3.39 ± 0.2
GCUGAGCAAUAUUACGUUGC	-4.04 ± 0.2	-2.53 ± 0.17
GCUUAGCAAUAUUACGAAAU	-0.692 ± 0.076	-0.498 ± 0.095
GCUUAGCAAUAUUACGAAGA	0.387 ± 0.24	-0.855 ± 0.15
GCUUAGCAAUAUUACGACCG	-1.2 ± 0.26	-1.19 ± 0.29
GCUUAGCAAUAUUACGAGCC	-4.35 ± 0.39	-1.53 ± 0.39
GCUUAGCAAUAUUACGAGGC		-1.93 ± 0.41
GCUUAGCAAUAUUACGAUGC	-1.43 ± 0.13	-0.976 ± 0.21
GCUUAGCAAUAUUACGAUUG	-3.31 ± 0.25	-1.01 ± 0.17
GCUUAGCAAUAUUACGCAAU	-0.651 ± 0.14	-1.35 ± 0.13
GCUUAGCAAUAUUACGCUAG	-2.81 ± 0.12	-2.19 ± 0.14
GCUUAGCAAUAUUACGCUCG	-0.579 ± 0.1	-0.0325 ± 0.16
GCUUAGCAAUAUUACGGAAG	-2.07 ± 0.14	-1.68 ± 0.14
GCUUAGCAAUAUUACGGCAC	-2.62 ± 0.44	0.326 ± 0.28
GCUUAGCAAUAUUACGGCGG	-3.5 ± 0.2	-3.14 ± 0.26
GCUUAGCAAUAUUACGGGGU	-2.56 ± 0.16	-2.55 ± 0.21
GCUUAGCAAUAUUACGGUAU	-1.74 ± 0.074	-1.15 ± 0.091
GCUUAGCAAUAUUACGUAAC	-0.517 ± 0.11	-0.62 ± 0.24
GCUUAGCAAUAUUACGUACG	-1.07 ± 0.065	0.0666 ± 0.089
GCUUAGCAAUAUUACGUAUG	-1.6 ± 0.18	-1.17 ± 0.2
GCUUAGCAAUAUUACGUGUU	-0.915 ± 0.081	-0.409 ± 0.087
GCUUAGCAAUAUUACGUUAA		-2.84 ± 0.29
GCUUAGCAAUAUUACGUUUG	-2.23 ± 0.12	-1.58 ± 0.14
GGAAAGCAAUAUUACGACGC	-0.197 ± 0.1	0.595 ± 0.16
